Laboratory results as given in publication PMC7803729.

The substances below were run against CT-P59 monoclonal antibody (fully human IgG) (human) (assay: BLI).
CT-P59 monoclonal antibody (fully human IgG) (human), sequence (heavy, as listed by the source, chain 1 of 2): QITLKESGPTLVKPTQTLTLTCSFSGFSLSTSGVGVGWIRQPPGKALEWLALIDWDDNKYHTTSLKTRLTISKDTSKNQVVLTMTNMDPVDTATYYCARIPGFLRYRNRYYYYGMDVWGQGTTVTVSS
CT-P59 monoclonal antibody (fully human IgG) (human), sequence (light, as listed by the source, chain 2 of 2): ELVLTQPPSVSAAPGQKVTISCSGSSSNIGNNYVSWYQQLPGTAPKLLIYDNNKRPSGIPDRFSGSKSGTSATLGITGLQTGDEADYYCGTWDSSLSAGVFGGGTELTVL
“SARS-CoV-2 RBD K458R (commercial, Sino Biological) (from UniProt P0DTC2) (domain or fragment)” gave a Kd of 236 pM, a koff of 0.000246 s⁻¹ and a kon of 1.04e+06 M⁻¹ s⁻¹.
For “SARS-CoV-2 RBD N354D (commercial, Sino Biological) (from UniProt P0DTC2) (domain or fragment)”, the Kd was 294 pM, the koff was 0.000253 s⁻¹ and the kon was 861000 M⁻¹ s⁻¹.
With “SARS-CoV-2 RBD V367F (commercial, Sino Biological) (from UniProt P0DTC2) (domain or fragment)” the Kd was 292 pM, the koff was 0.000265 s⁻¹ and the kon was 907000 M⁻¹ s⁻¹.
For “SARS-CoV-2 RBD W436R (commercial, Sino Biological) (from UniProt P0DTC2) (domain or fragment)”, the Kd was 221 pM, the koff was 0.00018 s⁻¹ and the kon was 816000 M⁻¹ s⁻¹.
